B1: CCR3 (protein)
chain: MTTSLDTVETFGTTSYYDDVGLLCEKADTRALMAQFVPPLYSLVFTVGLLGNVVVVMILIKYRRLRIMTNIYLLNLAISDLLFLVTLPFWIHYVRGHNWVFGHGMCKLLSGFYHTGLYSEIFFIILLTIDRYLAIVHAVFALRARTVTFGVITSIVTWGLAVLAALPEFIFYETEELFEETLCSALYPEDTVYSWRHFHTLRMTIFCLVLPLLVMAICYTGIIKTLLRCPSKKKYKAIRLIFVIMAVFFIFWTPYNVAILLSSYQSILFGNDCERSKHLDLVMLVTEVIAYSHCCMNPVIYAFVGERFRKYLRHFFHRHLLMHLGRYIPFLPSEKLERTSSVSPSTAEPELSIVF
modifications: FITC-labeled CCL11, POPC SMALPs with 30% cholesterol
B2: CCR3 (protein)
chain: B1 chain
modifications: FITC-labeled CCL11, proteoliposomes with 40% cholesterol
B3: CCR3 (protein)
chain: B1 chain
modifications: FITC-labeled CCL11, proteoliposomes with 60% cholesterol

Molecular target: CCL11 (eotaxin-1) 24-97 (Homo sapiens, UniProt P51671)
Assay: fluorescence polarization

Sequence of CCL11 (eotaxin-1) 24-97 (P51671 24-97): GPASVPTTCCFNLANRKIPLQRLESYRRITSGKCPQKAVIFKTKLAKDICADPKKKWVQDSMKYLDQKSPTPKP

| Binder | Kd |
| --- | --- |
| B1 | 30 nM |
| B2 | 20 nM |
| B3 | 11 nM |
